Experimental data from IntAct's records for PubMed 34706264.

B1: ORF3a protein (SARS-CoV-2), P0DTC3 (parent)
chain: MDLFMRIFTIGTVTLKQGEIKDATPSDFVRATATIPIQASLPFGWLIVGVALLAVFQSASKIITLKKRWQLALSKGVHFVCNLLLLFVTVYSHLLLVAAGLEAPFLYLYALVYFLQSINFVRIIMRLWLCWKCRSKNPLLYDANYFLCWHTNCYDYCIPYNSVTSSIVITSGDGTTSPISEHDYQIGGYTEKWESGVKDCVVLHSYFTSDYYQLYSTQLSTDTGVEHVTFFIYNKIVDEPEEHVQIHTIDGSSGVVNPVMEPIYDEPTTTTSVPL
B2: ORF3a protein (SARS-CoV-2), P0DTC3 (parent)
chain: B1 chain
partner: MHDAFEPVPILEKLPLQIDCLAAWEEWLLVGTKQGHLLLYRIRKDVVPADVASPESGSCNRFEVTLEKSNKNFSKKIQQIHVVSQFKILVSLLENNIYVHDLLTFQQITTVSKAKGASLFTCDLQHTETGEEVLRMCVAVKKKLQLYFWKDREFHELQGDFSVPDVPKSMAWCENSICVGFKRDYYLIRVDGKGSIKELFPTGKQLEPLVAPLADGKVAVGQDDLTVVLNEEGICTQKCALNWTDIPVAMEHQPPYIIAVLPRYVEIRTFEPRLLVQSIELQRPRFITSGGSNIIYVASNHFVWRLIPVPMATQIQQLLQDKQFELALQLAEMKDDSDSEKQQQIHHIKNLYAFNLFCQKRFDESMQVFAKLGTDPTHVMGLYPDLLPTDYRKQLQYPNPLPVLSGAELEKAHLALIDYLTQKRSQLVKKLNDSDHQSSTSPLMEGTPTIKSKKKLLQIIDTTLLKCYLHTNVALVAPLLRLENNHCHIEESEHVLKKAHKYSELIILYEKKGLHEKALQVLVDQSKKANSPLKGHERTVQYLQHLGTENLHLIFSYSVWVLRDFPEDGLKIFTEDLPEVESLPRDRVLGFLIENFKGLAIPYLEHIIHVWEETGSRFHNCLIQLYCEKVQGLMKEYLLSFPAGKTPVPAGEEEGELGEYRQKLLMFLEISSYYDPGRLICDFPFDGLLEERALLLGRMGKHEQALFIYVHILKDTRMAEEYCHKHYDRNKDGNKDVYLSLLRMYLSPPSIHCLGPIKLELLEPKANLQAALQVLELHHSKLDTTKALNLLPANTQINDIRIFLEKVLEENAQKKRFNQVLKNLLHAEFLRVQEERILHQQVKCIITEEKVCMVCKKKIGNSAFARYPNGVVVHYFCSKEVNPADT

Variants of: B1
Settings: with stx4_human STX4, Q12846
Chain of stx4_human STX4, Q12846 (Q12846 whole entry): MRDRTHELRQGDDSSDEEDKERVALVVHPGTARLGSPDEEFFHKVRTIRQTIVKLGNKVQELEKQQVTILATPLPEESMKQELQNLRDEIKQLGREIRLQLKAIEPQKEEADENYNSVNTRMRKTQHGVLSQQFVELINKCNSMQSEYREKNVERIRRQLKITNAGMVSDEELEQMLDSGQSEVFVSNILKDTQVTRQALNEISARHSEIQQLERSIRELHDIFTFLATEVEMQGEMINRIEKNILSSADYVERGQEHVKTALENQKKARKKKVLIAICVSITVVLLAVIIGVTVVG

Row | Variant | effect of a mutation on the interaction
1 | S171E | disrupting interaction strength

Variants of: B1
Settings: with vamp7_human VAMP7, P51809
Chain of vamp7_human VAMP7, P51809 (P51809 whole entry): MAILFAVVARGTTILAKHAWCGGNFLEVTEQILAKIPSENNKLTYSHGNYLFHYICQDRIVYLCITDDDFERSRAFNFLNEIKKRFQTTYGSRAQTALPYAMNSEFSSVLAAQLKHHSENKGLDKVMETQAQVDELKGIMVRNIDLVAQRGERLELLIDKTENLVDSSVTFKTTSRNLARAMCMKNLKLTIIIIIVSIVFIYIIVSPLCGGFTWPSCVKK

Row | Variant | effect of a mutation on the interaction
2 | S171E | disrupting interaction strength

Variants of: B2
Settings: with vps39_human VPS39, Q96JC1

Row | Variant | effect of a mutation on the interaction
3 | Q57E | with no effect
4 | S58L | with no effect
5 | Q116L | with no effect

Variants of: B2
Settings: with vps39_human VPS39, Q96JC1
Remark: another data set of the same source

Row | Variant | effect of a mutation on the interaction
6 | S171E | disrupting interaction strength
7 | W193R | decreasing interaction strength
